Data published in patent US20230374147A1 (HUMMINGBIRD BIOSCIENCE PTE, published 2023).
Substitutions are numbered along the chain they refer to.

Columns and labels:
[1] = target: T1, His-tagged mouse BCMA (Acro Biosystems, BCA-M52H3) (mouse, UniProt O88472 1-49); experiment: ELISA, IgG purified from hybridoma supernatant, coated His-tagged antigen
T1 construct: Bought protein; not shown: His tag
T1 chain: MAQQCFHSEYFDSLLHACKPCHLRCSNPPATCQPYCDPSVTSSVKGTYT

[2] = target: T2, His-tagged human BCMA (Acro Biosystems, Cat. #BCA-H522y) (human, UniProt Q02223 1-54); experiment: as above
T2 construct: also called huBCMA; P1; not shown: His tag
T2 sequence: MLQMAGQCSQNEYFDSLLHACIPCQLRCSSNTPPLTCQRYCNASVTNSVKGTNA

[3] = target: T1, His-tagged mouse BCMA (Acro Biosystems, …); experiment: ELISA, hybridoma supernatant, coated His-tagged antigen
[4] = target: T2, His-tagged human BCMA (Acro Biosystems, …); experiment: as above
[5] = target: T3, His-tagged cynomolgous macaque BCMA (Acro Biosystems, BCA-C52H7) (cynomolgus macaque, UniProt Q02223 1-54 (human entry)); experiment: as above
T3 construct: Bought protein; also called cyno BCMA; CyBCMA; not shown: His tag

[6] = target: T4, human BCMA expressed on cells (human, UniProt Q02223 1-184); experiment: flow cytometry, hybridoma supernatant, HEK293T cells stably expressing human BCMA
T4 construct: the cell line is named under assay; also called wildtype human BCMA
T4 sequence: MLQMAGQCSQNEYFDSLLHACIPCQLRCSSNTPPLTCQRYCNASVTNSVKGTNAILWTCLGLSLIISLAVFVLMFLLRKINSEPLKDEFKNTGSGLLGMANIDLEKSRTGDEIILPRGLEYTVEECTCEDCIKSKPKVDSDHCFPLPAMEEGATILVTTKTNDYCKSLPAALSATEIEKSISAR

[7] = target: T2, His-tagged human BCMA (Acro Biosystems, …); experiment: BLI, His-tagged human BCMA on HIS1K tip, no APRIL; R2 0.9901
[8] = target: T3, His-tagged cynomolgous macaque BCMA …; experiment: BLI, His-tagged cynomolgus BCMA on HIS1K tip
[9] = target: T4, human BCMA expressed on cells; experiment: flow cytometry, H929 cells (BCMA-expressing)
[10] = target: T2, His-tagged human BCMA (Acro Biosystems, …); experiment: BLI, His-tagged human BCMA on HIS1K tip
[11] = target: T1, His-tagged mouse BCMA (Acro Biosystems, …); experiment: BLI, His-tagged mouse BCMA on HIS1K tip
[12] = target: T3, His-tagged cynomolgous macaque BCMA …; experiment: BLI, His-tagged cynomolgus BCMA on HIS1K tip; R2 0.9501
[13] = target: T2, His-tagged human BCMA (Acro Biosystems, …); experiment: BLI, His-tagged human BCMA on HIS1K tip; R2 0.9901
[14] = target: T1, His-tagged mouse BCMA (Acro Biosystems, …); experiment: BLI, His-tagged mouse BCMA on HIS1K tip; R2 0.9322
[15] = target: T5, cynomolgous macaque BCMA expressed on CHOK1 cells; experiment: flow cytometry, CHOK1 cells transiently expressing cynomolgus BCMA
T5 construct: also called cyno BCMA on cells

[16] = target: T6, Human BCMA-His (Sino Biological, 10620-H08H) (human, UniProt Q02223 1-54); experiment: ELISA, coated Human BCMA-His
T6 construct: not shown: His tag
T6 sequence: T2 sequence

[17] = target: T7, recombinant his-tagged human TACI (Sinobiological cat #11937-H08H) (human, UniProt O14836 1-165); experiment: BLI, IgG on HFC tip, His-tagged human TACI 300-37.5 nM
T7 construct: Bought protein; also called Human TACI-His; huTACI; not shown: His tag
T7 sequence: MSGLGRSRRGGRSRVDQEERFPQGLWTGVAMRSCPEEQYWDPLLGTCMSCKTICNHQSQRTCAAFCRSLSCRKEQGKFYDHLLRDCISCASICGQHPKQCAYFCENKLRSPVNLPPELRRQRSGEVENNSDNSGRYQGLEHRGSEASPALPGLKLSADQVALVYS

[18] = target: T7, recombinant his-tagged human TACI …; experiment: ELISA, coated Human TACI-His
[19] = target: T4, human BCMA expressed on cells; experiment: flow cytometry, fixed RPMI 8226 cells (BCMA+, TACI+: the cells carry both targets)
[20] = target: T3, His-tagged cynomolgous macaque BCMA …; experiment: ELISA, coated Cyno BCMA-His
[21] = target: T2, His-tagged human BCMA (Acro Biosystems, …); experiment: BLI, IgG on HFC tip, His-tagged human BCMA 300-37.5 nM
[22] = target: T4, human BCMA expressed on cells; experiment: flow cytometry, H929 cells (BCMA+)
[23] = target: T8, Cyno TACI-His (Sino Biological, 90976-C08H) (cynomolgus macaque, UniProt G7PTR7 1-165); experiment: ELISA, coated Cyno TACI-His
T8 construct: Bought protein; also called cynomolgous macaque TACI; CyTACI
T8 sequence: T7 sequence with F21S, T52A, A64T, S70N, K77R, L139S, V160L

[24] = target: T9, Human HER3-His (Sino Biological, 10201-H08H) (human, UniProt P21860 20-643); experiment: ELISA, coated His-tagged antigen
T9 construct: Specificity control; also called Human HERS-His

[25] = target: T3, His-tagged cynomolgous macaque BCMA …; experiment: BLI, IgG on HFC tip, His-tagged cynomolgus BCMA 300-37.5 nM
[26] = target: T8, Cyno TACI-His (Sino Biological, …); experiment: BLI, IgG on HFC tip, His-tagged cynomolgus TACI 300-37.5 nM
[27] = target: T7, recombinant his-tagged human TACI …; experiment: BLI (Gator), antibody loaded on HFC biosensor, His-tagged antigen as analyte
[28] = target: T2, His-tagged human BCMA (Acro Biosystems, …); experiment: as above
[29] = target: T3, His-tagged cynomolgous macaque BCMA …; experiment: as above

B1: 538-SP5-B10 (antibody produced by the hybridoma) (antibody, V domains shown)
VH: EVQLQQSGPELVKPGASVKMSCKASGYTFTSYVMHWVKQKPGRGLEWIAYILPFNDVTKYNEKFKGKATLTSDKSSNTAYMELSSLTSEDSAVYYCARWEWDDGYFDYWGQGTTLTVSS
VL: DAVMTQTPLSLPVSLGDQASISCRSSQSLENSNGNTYLNWYLQKPGQSPQLLIYRVSNRFSGVLDRFSGSGSGTDFTLKISRVEAEDLGVYFCLQVSHVPFTFGAGTKLELK
notes: Mouse antibody from B cell hybridoma (culture supernatant or IgG purified from it)
EC50 [1]: 21 µg/mL
EC50 [2]: 0.0358 µg/mL
ELISA values (OD 450 nm) [3]: 0.247 OD
ELISA values (OD 450 nm) [4]: 0.812 OD
ELISA values (OD 450 nm) [5]: 2.44 OD
% Parent (percent positive cells) [6]: 70.8%

B2: 539-SP1-C8 (antibody produced by the hybridoma) (antibody, V domains shown)
VH: EVQLQQSGPELVKPGSSVKMSCKASGYTFTNYVMHWVKQKPGQGLEWIGYILPYNDGTKYNEKFKGKATLTSDKSSSTAYMEFSVLTSEDSAVYYCARYDYEGSFDYWGQGTALTVSS
VL: DIQMTQTTSSLSASLGDRVTISCRASQDISNYLNWYQQKPDGTVKLLMCYTSRLHSGVPSRFSGSGSGTDFSLTISNLEQEDIATYFCQQGNTFPPTFGGGTKLEIK
notes: as for B1
EC50 [1]: 9.19 µg/mL
EC50 [2]: 0.0299 µg/mL
ELISA values (OD 450 nm) [3]: 0.339 OD
ELISA values (OD 450 nm) [4]: 0.686 OD
ELISA values (OD 450 nm) [5]: 2.04 OD
% Parent (percent positive cells) [6]: 56.5%

B3: 539-SP7-F4 (antibody produced by the hybridoma) (antibody, V domains shown)
VH: EVQLQQSGPELVKPGASMKISCKASGYSFTGYIMNWVKQSHGKNLEWIGLINPYNGDSIYNQKFKGKATLTVDKSSSTAYMELFSLTSEDSTVYYCAAGEEFAYWGQGTLVTVSA
VL: DIQMTQTSSSLSASLGDRVTISCRASQDISIYLNWFQQKPDGTVKLLIYFTSRLHPGVPSRFSASGSGTDYSLTISHLEHEDIATYFCQQGNTLPRTFGGGTKVELK
notes: as for B1
EC50 [1]: 14.6 µg/mL
EC50 [2]: 0.0182 µg/mL
ELISA values (OD 450 nm) [3]: 0.318 OD
ELISA values (OD 450 nm) [4]: 0.893 OD
ELISA values (OD 450 nm) [5]: 2.35 OD
% Parent (percent positive cells) [6]: 63.8%

B4: 539-SP5-D7 hIgG1 (antibody, V domains shown)
VH: EVMLVDSGGNLVKPGGSLKLSCAASGFTFSNYVISWVRQTPEKRLEWVATISTVGTNTYYPDSVRGRFTISRDNAENTLYLQMSSLRSEDTAIYYCSRHKYGYDDPSYAMDYWGQGTSVTVSS
VL: QLVLTQSSSASFSLGASAKLTCTLSSQHSTYTIEWYQQQPLKPPKYVMELKKDGSHSTGDGIPDRFSGSSSGADRYLSISNIQAEDEAIYICGVGDTVKEQFVYVFGGGTKVTVLG
notes: Human-mouse chimeric antibody, human IgG1 format, lambda light chain; also called [4]
Kd [7]: < 0.001 nM
Cyno BCMA response [8]: 0.265
EC50 (read off the curve) [9]: ~0.3 µg/mL
Human BCMA response [10]: 2.14
Mouse BCMA response [11]: 1.01
Kd [12]: 167 nM
Kd [13]: < 0.001 nM
Kd [14]: 4.86 nM
binding result [15]: binds

B5: 1C8-610 hIgG1 (antibody, V domains shown)
VH: QVQLVQSGAEVKKPGASVKVSCKASGYTFTNYVMFWVKQKPGQGLEWMGYITPYNDGTKYAQKFQGKVTMTSDKSTSTVYMELSSLTSEDTAVYYCARYDYEGSFDYWGQGTLVTVSS
VL: DIQMTQSPSSLSASVGDRVTITCRASQDISNYLNWYQQKPGKAPKLLMRYTSRFHSGVPSRFSGSGSGTDFTLTISSLEQEDFATYYCQQGNTFPPTSGGGTKVEIKR
notes: also called [93]; hu1C8-610
EC50 [16]: 0.01 nM
Kd [17]: 20.8 nM
koff [17]: 0.0205 s⁻¹
kon [17]: 988000 M⁻¹ s⁻¹
EC50 [18]: 0.01 nM
EC50 [19]: 0.134 nM
EC50 [20]: 0.089 nM
Kd [21]: 0.65 nM
koff [21]: 0.00307 s⁻¹
kon [21]: 4.71e+06 M⁻¹ s⁻¹
EC50 [22]: 0.0677 nM
EC50 [23]: 0.007 nM
binding result [24]: no binding (tested: 3 µg/ml (highest concentration))
Kd [25]: 22.8 nM
koff [25]: 0.0291 s⁻¹
kon [25]: 1.28e+06 M⁻¹ s⁻¹
Kd [26]: 1.25 nM
koff [26]: 0.000839 s⁻¹
kon [26]: 673000 M⁻¹ s⁻¹

B6: 1C8-25 hIgG1 (antibody, V domains shown)
VH: QVQLVQSGAEVKKPGASVKVSCKASGYTFTNYVMHWVRQAPGQRLEWMGYILPYNDGTKYSQKFQGRVTITRDTSASTAYMELSSLRSEDTAVYYCARYDWEGSFDYWGQGTTVTVSS
VL: B5 VL with S30G, P44V, F54L, E79Q, Q80P, N92F, S98F, V104L
notes: also called [95]
binding result [27]: binds
binding result [28]: binds
binding result [29]: binds

B7: 1C8-27 hIgG1 (antibody, V domains shown)
VH: B6 VH
VL: B5 VL with R24A, P44V, F54L, E79Q, Q80P, T93R, S98F, V104L
notes: also called [96]
binding result [27]: binds
binding result [28]: binds
binding result [29]: binds
